This is an account of results in patent US20100143365A1.

Test [1] addresses lysozyme Gallus gallus fibrils (Gallus gallus) (UniProt P00698). Nature of the test: ELISA, lysozyme fibrils. A general note: In an ELISA, binding on a coated surface is turned into a signal by an enzyme label.
For test [2], the target named is human fibrillar Aβ42 (human) (UniProt P05067). The test can be described thus: ELISA, Aβ fibrils.
Sequence of UniProt P05067 (P05067 672-713 limits assumed): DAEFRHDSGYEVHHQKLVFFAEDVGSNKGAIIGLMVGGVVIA

Sequence of UniProt P00698 (P00698 other isoform, or with tags, fused parts or gaps limits assumed): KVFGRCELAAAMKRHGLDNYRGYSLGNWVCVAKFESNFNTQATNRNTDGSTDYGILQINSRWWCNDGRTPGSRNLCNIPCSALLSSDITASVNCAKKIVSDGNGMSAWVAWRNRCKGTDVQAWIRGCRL

B1: scFv21 (anti-amyloid scFv designated Pan 21′) (scFv)
scFv: DKLMAEVQLLESGGGLVQPGGSLRLSCAASGFTFSSYAMSWVRQAPGKGLEWVSSIQKSGEKTHYADSVKGRFTISRDNSKNTLYLQMNSLRAEDTAVYYCAKKRTLFDYWGQGTLVTVSSGGGGSGGGGSGGGGSTDIQMTQSPSSLSASVGDRVTITCRASQSISSYLNWYQQKPGKAPKLLIYRASYLQSGVPSRFSGSGSGTDFTLTISSLQPEDFATYYCQQSYSLPTTFGQGTKVEIKRAAAHHHHHHGAAEQKLISEEDLN
B1: the OD Values in test [1] came out at 0.095 OD; in test [2] it was 0.011 OD.
